Patent US11653679B2, “High-purity steviol glycosides” (PureCircle Sdn Bhd, priority 2014, dated 2023)
Changes are numbered by the printed parent chain.

B1: UGT76G1var2: UGT76G1 variant, mutations S274G_T284I_L379G (protein, UniProt Q6VAB4 1-458, looked up, variant S274G T284I L379G)
UDP-glycosyltransferase 76G1: MENKTETTVRRRRRIILFPVPFQGHINPILQLANVLYSKGFSITIFHTNFNKPKTSNYPHFTFRFILDNDPQDERISNLPTHGPLAGMRIPIINEHGADELRRELELLMLASEEDEEVSCLITDALWYFAQSVADSLNLRRLVLMTSSLFNFHAHVSLPQFDELGYLDPDDKTRLEEQASGFPMLKVKDIKSAYSNWQILKEILGKMIKQTKASSGVIWNSFKELEESELETVIREIPAPSFLIPLPKHLTASSSSLLDHDRTVFQWLDQQPPGSVLYVSFGSISEVDEKDFLEIARGLVDSKQSFLWVVRPGFVKGSTWVEPLPDGFLGERGRIVKWVPQQEVLAHGAIGAFWTHSGWNSTLESVCEGVPMIFSDFGGDQPLNARYMSDVLKVGVYLENGWERGEIANAIRRVMVDEEGEYIRQNARVLKQKADVSLMKGGSSYESLESLVSYISSL
B2: UGT76G1var79: UGT76G1 variant, mutations E224D_T284I_V366I_I373L_K393G (protein, UniProt Q6VAB4 1-458, looked up, variant E224D T284I V366I I373L K393G)
UDP-glycosyltransferase 76G1: B1 UDP-glycosyltransferase 76G1 with E224D, G274S, V366I, I373L, G379L, K393G
B3: UGT76G1var65: UGT76G1 variant, mutations A33G_A239V_P382M_Q425E (protein, UniProt Q6VAB4 1-458, looked up, variant A33G A239V P382M Q425E)
UDP-glycosyltransferase 76G1: B1 UDP-glycosyltransferase 76G1 with A33G, A239V, G274S, I284T, G379L, P382M, Q425E
B4: UGT76G1var73: UGT76G1 variant, mutations F22Y_D301N_R334H_Q342E_V396F (protein, UniProt Q6VAB4 1-458, looked up, variant F22Y D301N R334H Q342E V396F)
UDP-glycosyltransferase 76G1: B1 UDP-glycosyltransferase 76G1 with F22Y, G274S, I284T, D301N, R334H, Q342E, G379L, V396F
B5: UGT76G1var64: UGT76G1 variant, mutations F22L_A239I_R334H_I407V (protein, UniProt Q6VAB4 1-458, looked up, variant F22L A239I R334H I407V)
UDP-glycosyltransferase 76G1: B1 UDP-glycosyltransferase 76G1 with F22L, A239I, G274S, I284T, R334H, G379L, I407V
B6: UGT76G1var72: UGT76G1 variant, mutations T284L_D301N_K303G_S375R (protein, UniProt Q6VAB4 1-458, looked up, variant T284L D301N K303G S375R)
UDP-glycosyltransferase 76G1: B1 UDP-glycosyltransferase 76G1 with G274S, I284L, D301N, K303G, S375R, G379L
B7: UGT76G1var4: UGT76G1 variant, mutations E224D_E231A_F265I (protein, UniProt Q6VAB4 1-458, looked up, variant E224D E231A F265I)
UDP-glycosyltransferase 76G1: B1 UDP-glycosyltransferase 76G1 with E224D, E231A, F265I, G274S, I284T, G379L
B8: UGT76G1var60: UGT76G1 variant, mutations E231A_L243A_V279I_S357N (protein, UniProt Q6VAB4 1-458, looked up, variant E231A L243A V279I S357N)
UDP-glycosyltransferase 76G1: B1 UDP-glycosyltransferase 76G1 with E231A, L243A, G274S, V279I, I284T, S357N, G379L
B9: UGT76G1var62: UGT76G1 variant, mutations L243P_P272A_V394I_V396F (protein, UniProt Q6VAB4 1-458, looked up, variant L243P P272A V394I V396F)
UDP-glycosyltransferase 76G1: B1 UDP-glycosyltransferase 76G1 with L243P, P272A, G274S, I284T, G379L, V394I, V396F
B10: UGT76G1var80: UGT76G1 variant, mutations L243P_L379A_S389E_Q425E_Q432E (protein, UniProt Q6VAB4 1-458, looked up, variant L243P L379A S389E Q425E Q432E)
UDP-glycosyltransferase 76G1: B1 UDP-glycosyltransferase 76G1 with L243P, G274S, I284T, G379A, S389E, Q425E, Q432E
B11: UGT76G1var3: UGT76G1 variant, mutations I295T_S357C_V366I (protein, UniProt Q6VAB4 1-458, looked up, variant I295T S357C V366I)
UDP-glycosyltransferase 76G1: B1 UDP-glycosyltransferase 76G1 with G274S, I284T, I295T, S357C, V366I, G379L
B12: UGT76G1var59: UGT76G1 variant, mutations I335V_K393G_V394I_Y397Q (protein, UniProt Q6VAB4 1-458, looked up, variant I335V K393G V394I Y397Q)
UDP-glycosyltransferase 76G1: B1 UDP-glycosyltransferase 76G1 with G274S, I284T, I335V, G379L, K393G, V394I, Y397Q
B13: UGT76G1var82: UGT76G1 variant, mutations E224D_L243A_F265L_R334H_A352G (protein, UniProt Q6VAB4 1-458, looked up, variant E224D L243A F265L R334H A352G)
UDP-glycosyltransferase 76G1: B1 UDP-glycosyltransferase 76G1 with E224D, L243A, F265L, G274S, I284T, R334H, A352G, G379L
B14: UGT76G1var63: UGT76G1 variant, mutations F314S_R334H_Q342K_L379G (protein, UniProt Q6VAB4 1-458, looked up, variant F314S R334H Q342K L379G)
UDP-glycosyltransferase 76G1: B1 UDP-glycosyltransferase 76G1 with G274S, I284T, F314S, R334H, Q342K
B15: UGT76G1var76: UGT76G1 variant, mutations F22Y_A239I_L246F_I295M_R334K (protein, UniProt Q6VAB4 1-458, looked up, variant F22Y A239I L246F I295M R334K)
UDP-glycosyltransferase 76G1: B1 UDP-glycosyltransferase 76G1 with F22Y, A239I, L246F, G274S, I284T, I295M, R334K, G379L
B16: UGT76G1var66: UGT76G1 variant, mutations F265L_V310I_V366I_A385T (protein, UniProt Q6VAB4 1-458, looked up, variant F265L V310I V366I A385T)
UDP-glycosyltransferase 76G1: B1 UDP-glycosyltransferase 76G1 with F265L, G274S, I284T, V310I, V366I, G379L, A385T
B17: UGT76G1var75: UGT76G1 variant, mutations F41L_A239I_Q266S_S375M_P382M (protein, UniProt Q6VAB4 1-458, looked up, variant F41L A239I Q266S S375M P382M)
UDP-glycosyltransferase 76G1: B1 UDP-glycosyltransferase 76G1 with F41L, A239I, Q266S, G274S, I284T, S375M, G379L, P382M
B18: UGT76G1var71: UGT76G1 variant, mutations I295M_V300A_K393G_Q432E (protein, UniProt Q6VAB4 1-458, looked up, variant I295M V300A K393G Q432E)
UDP-glycosyltransferase 76G1: B1 UDP-glycosyltransferase 76G1 with G274S, I284T, I295M, V300A, G379L, K393G, Q432E
B19: UGT76G1var70: UGT76G1 variant, mutations E224A_I295T_V300A_G348P (protein, UniProt Q6VAB4 1-458, looked up, variant E224A I295T V300A G348P)
UDP-glycosyltransferase 76G1: B1 UDP-glycosyltransferase 76G1 with E224A, G274S, I284T, I295T, V300A, G348P, G379L
B20: UGT76G1var69: UGT76G1 variant, mutations S274G_I295T_I335V_L379A (protein, UniProt Q6VAB4 1-458, looked up, variant S274G I295T I335V L379A)
UDP-glycosyltransferase 76G1: B1 UDP-glycosyltransferase 76G1 with I284T, I295T, I335V, G379A
B21: UGT76G1var74: UGT76G1 variant, mutations I295T_I373L_S375R_Y397Q_Q432E (protein, UniProt Q6VAB4 1-458, looked up, variant I295T I373L S375R Y397Q Q432E)
UDP-glycosyltransferase 76G1: B1 UDP-glycosyltransferase 76G1 with G274S, I284T, I295T, I373L, S375R, G379L, Y397Q, Q432E
B22: UGT76G1var67: UGT76G1 variant, mutations E224D_F314S_S375R_Y397E (protein, UniProt Q6VAB4 1-458, looked up, variant E224D F314S S375R Y397E)
UDP-glycosyltransferase 76G1: B1 UDP-glycosyltransferase 76G1 with E224D, G274S, I284T, F314S, S375R, G379L, Y397E
B23: UGT76G1var83: UGT76G1 variant, mutations I43V_Q342E_S357N_S375R_L379G (protein, UniProt Q6VAB4 1-458, looked up, variant I43V Q342E S357N S375R L379G)
UDP-glycosyltransferase 76G1: B1 UDP-glycosyltransferase 76G1 with I43V, G274S, I284T, Q342E, S357N, S375R
B24: UGT76G1var81: UGT76G1 variant, mutations A33G_T263S_S274G_V279I_Y397E (protein, UniProt Q6VAB4 1-458, looked up, variant A33G T263S S274G V279I Y397E)
UDP-glycosyltransferase 76G1: B1 UDP-glycosyltransferase 76G1 with A33G, T263S, V279I, I284T, G379L, Y397E
B25: UGT76G1var77: UGT76G1 variant, mutations A239V_F265I_I295T_D301N_K393G (protein, UniProt Q6VAB4 1-458, looked up, variant A239V F265I I295T D301N K393G)
UDP-glycosyltransferase 76G1: B1 UDP-glycosyltransferase 76G1 with A239V, F265I, G274S, I284T, I295T, D301N, G379L, K393G
B26: UGT76G1var68: UGT76G1 variant, mutations Q342K_G348P_I373L_Y397E (protein, UniProt Q6VAB4 1-458, looked up, variant Q342K G348P I373L Y397E)
UDP-glycosyltransferase 76G1: B1 UDP-glycosyltransferase 76G1 with G274S, I284T, Q342K, G348P, I373L, G379L, Y397E
B27: UGT76G1var78: UGT76G1 variant, mutations V279I_V300A_V310I_I335V_S357C (protein, UniProt Q6VAB4 1-458, looked up, variant V279I V300A V310I I335V S357C)
UDP-glycosyltransferase 76G1: B1 UDP-glycosyltransferase 76G1 with G274S, V279I, I284T, V300A, V310I, I335V, S357C, G379L
B28: UGT76G1var58: UGT76G1 variant, mutations S357C_S375M_N409R_Q425E (protein, UniProt Q6VAB4 1-458, looked up, variant S357C S375M N409R Q425E)
UDP-glycosyltransferase 76G1: B1 UDP-glycosyltransferase 76G1 with G274S, I284T, S357C, S375M, G379L, N409R, Q425E
B29: UGT76G1var61: UGT76G1 variant, mutations I43V_F265I_Q266S_L379A (protein, UniProt Q6VAB4 1-458, looked up, variant I43V F265I Q266S L379A)
UDP-glycosyltransferase 76G1: B1 UDP-glycosyltransferase 76G1 with I43V, F265I, Q266S, G274S, I284T, G379A
B30: UGT76G1var57: UGT76G1 variant, mutations S241I_T263S_L379G_A385T (protein, UniProt Q6VAB4 1-458, looked up, variant S241I T263S L379G A385T)
UDP-glycosyltransferase 76G1: B1 UDP-glycosyltransferase 76G1 with S241I, T263S, G274S, I284T, A385T

Assay: Directed evolution of UGT76G1, Rebaudioside D to Rebaudioside M, round 1 (Example 26)
Format: biochemical
Settings: 100 μL fresh lysate, 0.5 mM Rebaudioside D, 30° C., pH 7.2
Method in brief: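 Conversion and initial rate were determined by HPLC with CAD detection on samples taken at 2, 4, 7 and 24 h. Reactions ran at 30 °C in 50 mM phosphate buffer pH 7.2 with lysate, Rebaudioside D (0.5 mM), UDP-glucose (2.5 mM) and MgCl2 (3 mM).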

| Molecule | initial rate | conversion Reb D to Reb M after 24 h |
| --- | --- | --- |
| B1 | 4.7E+07 Reb M area/min |  |
| B2 | 3.8E+06 Reb M area/min | 8.5% |
| B3 | 3.3E+05 Reb M area/min | 1.2% |
| B4 | 8.7E+05 Reb M area/min | 0.8% |
| B5 | 3.1E+04 Reb M area/min | 0.3% |
| B6 | 9.1E+06 Reb M area/min |  |
| B7 | 8.6E+06 Reb M area/min |  |
| B8 | 9.5E+04 Reb M area/min | 0.5% |
| B9 | 3.4E+04 Reb M area/min | 0.1% |
| B10 | 2.1E+05 Reb M area/min | 1.0% |
| B11 | 1.6E+06 Reb M area/min | 9.6% |
| B12 | 2.7E+07 Reb M area/min | 33.0% |
| B13 | 2.5E+05 Reb M area/min | 1.1% |
| B14 | 1.2E+06 Reb M area/min | 3.4% |
| B15 | 7.2E+05 Reb M area/min | 2.6% |
| B16 | 3.7E+05 Reb M area/min | 0.8% |
| B17 | −1.3E+05 Reb M area/min | 0.8% |
| B18 | 2.1E+07 Reb M area/min |  |
| B19 | 8.4E+06 Reb M area/min | 24.0% |
| B20 | 8.3E+06 Reb M area/min |  |
| B21 | 9.6E+04 Reb M area/min | 0.6% |
| B22 | −5.6E+05 Reb M area/min | −2.1% |
| B23 | 4.3E+04 Reb M area/min | 0.5% |
| B24 | 6.5E+06 Reb M area/min | 15.0% |
| B25 | 4.4E+05 Reb M area/min | 1.9% |
| B26 | −1.1E+05 Reb M area/min | −1.4% |
| B27 | 8.2E+05 Reb M area/min | 3.2% |
| B28 | 2.2E+06 Reb M area/min | 7.5% |
| B29 | 2.0E+06 Reb M area/min | 6.4% |
| B30 | 1.5E+05 Reb M area/min | 0.8% |
